# In patent publication US20180194851A1 (Pfizer, published 2018):
# Positions count from the first letter of the chain named.
# B1: MOR-6032 (IgG1) (antibody, V domains shown)
# VH: QVQLVQSGAEVKKPGSSVKVSCKASGGTFNSYAISWVRQAPGQGLEWMGGIIPGFGTANYAQKFQGRVTITADESTSTAYMELSSLRSEDTAVYYCARKNEEDGGFDHWGQGTLVTVSS
# VL: DIELTQPPSVSVAPGQTARISCSGDNLGDYYASWYQQKPGQAPVLVIYDDSNRPSGIPERFSGSNSGNTATLTISGTQAEDEADYYCQTWDGTLHFVFGGGTKLTVL
# notes: Human IgG1 format, lambda light chain; also called 6032_G1
# B2: MOR-7361 (IgG1) (antibody, V domains shown)
# VH: QVQLVESGGGLVQPGGSLRLSCAASGFTFSDYYMHWVRQAPGKGLEWVSVISGSGSNTYYADSVKGRFTISRDNSKNTLYLQMNSLRAEDTAVYYCARLYAQFEGDFWGQGTLVTVSS
# VL: DIELTQPPSVSVAPGQTARISCSGDNIGSKYVSWYQQKPGQAPVLVIYSDSERPSGIPERFSGSNSGNTATLTISGTQAEDEADYYCQSWDGSISRVFGGGTKLTVL
# notes: Human IgG1 format, lambda light chain; also called 7361_G1
# B3: MOR-7483 (IgG1) (antibody, V domains shown)
# VH: QVQLVQSGAEVKKPGESLKISCKGSGYSFSTYWISWVRQMPGKGLEWMGKIYPGDSYTNYSPSFQGQVTISADKSISTAYLQWSSLKASDTAMYYCARGYGIFDYWGQGTLVTVSS
# VL: DIELTQPPSVSVAPGQTARISCSGDNIGDQYAHWYQQKPGQAPVVVIYQDKNRPSGIPERFSGSNSGNTATLTISGTQAEDEADYYCSTYTFVGFTTVFGGGTKLTVL
# notes: Human IgG1 format, lambda light chain; also called 7483_G1
# B4: MOR-7480.2 (IgG1) (antibody, V domains shown)
# VH: B3 VH with Q1E, K19R
# VL: SYELTQPPSVSVSPGQTASITCSGDNIGDQYAHWYQQKPGQSPVVVIYQDKNRPSGIPERFSGSNSGNTATLTISGTQAMDEADYYCATYTGFGSLAVFGGGTKLTVL
# notes: Human IgG1 format
# B5: MOR-7483.1 (IgG1) (antibody, V domains shown)
# VH: B3 VH with Q1E, K19R
# VL: B4 VL with V45L, A88S, G92F, F93V, S95F, L96T, A97T
# notes: Germlined version of MOR-7483, human IgG1 format
# B6: MOR-7480 (IgG2) (antibody, V domains shown)
# VH: B3 VH
# VL: DIELTQPPSVSVAPGQTARISCSGDNIGDQYAHWYQQKPGQAPVVVIYQDKNRPSGIPERFSGSNSGNTATLTISGTQAEDEADYYCATYTGFGSLAVFGGGTKLTVLG
# B7: MOR-7483 (IgG2) (antibody, V domains shown)
# VH: B3 VH
# VL: B6 VL with A88S, G92F, F93V, S95F, L96T, A97T
# notes: also called 7483_G2
# B8: Fab-7361 (Fab, V domains shown)
# VH: B2 VH
# VL: B2 VL
# What was measured:
# CD40 on 300.19 cells = molecular target: T1, CD40 on 300.19 cells (UniProt P25942 21-277, limits assumed); experiment: FACS on 300.19 cells expressing CD40
# T1 construct: whole, on cells; also called TNFRSF5; 300.19 CD40
# OX-40 on 300.19 cells = molecular target: T2, OX-40 on 300.19 cells (UniProt P43489 29-277, limits assumed); experiment: FACS on 300.19 cells expressing OX-40
# T2 construct: whole, on cells; also called CD134; TNFRSF4
# T2 sequence (looked up): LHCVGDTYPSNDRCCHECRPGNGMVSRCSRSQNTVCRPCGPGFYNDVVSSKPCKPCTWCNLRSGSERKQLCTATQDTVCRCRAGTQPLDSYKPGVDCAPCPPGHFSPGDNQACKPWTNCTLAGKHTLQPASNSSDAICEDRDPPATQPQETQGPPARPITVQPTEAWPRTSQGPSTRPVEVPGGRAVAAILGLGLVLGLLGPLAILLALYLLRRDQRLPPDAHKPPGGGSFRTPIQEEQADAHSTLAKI
# Hu41BB N&E.3 = molecular target: T3, Hu41BB N&E.3 (human, UniProt Q07011 18-255); experiment: FACS, 100 nM antibody, transduced 300-19 cell pools
# T3 construct: Human-to-dog mutant of the human 4-1BB extracellular domain, expressed on transduced 300-19 cells
# T3 chain: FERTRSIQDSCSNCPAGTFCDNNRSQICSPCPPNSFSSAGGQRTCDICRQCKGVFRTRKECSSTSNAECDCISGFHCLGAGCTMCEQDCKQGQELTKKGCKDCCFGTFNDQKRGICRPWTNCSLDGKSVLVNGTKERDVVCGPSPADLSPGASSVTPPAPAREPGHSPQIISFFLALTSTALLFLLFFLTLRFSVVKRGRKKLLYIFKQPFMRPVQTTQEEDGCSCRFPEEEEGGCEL
# human 4-1BB on cells [1] = molecular target: T4, human 4-1BB on cells (human, UniProt Q07011 18-255); experiment: FACS on transfected cells
# T4 construct: Expressed on stably transfected HEK293/HEK293T cells, transduced 300-19 cells or PHA stimulated human PBMC; also called h41BB; hu4-1BB
# [2] = molecular target: T5, Recombinant human 4-1BB/Fc Chimera (R&D Systems #838-4B) (human, UniProt Q07011 24-186); experiment: ELISA on coated human 4-1BB IgG1Fc chimera
# T5 construct: Bought protein; also called Human 4-1BB IgG1Fc chimera; not shown: Factor Xa-cleavable junction, human IgG1 Fc and 6xHistidine tag of the bought chimera
# [3] = molecular target: T5, Recombinant human 4-1BB/Fc Chimera (R&D …); experiment: ELISA on directly coated human 4-1BB/Fc, IgG1
# human 4-1BB on cells [4] = molecular target: T4, human 4-1BB on cells; experiment: FACS on HEK293T cells expressing human 4-1BB, IgG1
# Hu41BB N&E = molecular target: T6, Hu41BB N&E (human, UniProt Q07011 18-255); experiment: FACS, 100 nM antibody, transduced 300-19 cell pools
# T6 construct: Human-to-dog mutant of the human 4-1BB extracellular domain, expressed on transduced 300-19 cells
# T6 chain: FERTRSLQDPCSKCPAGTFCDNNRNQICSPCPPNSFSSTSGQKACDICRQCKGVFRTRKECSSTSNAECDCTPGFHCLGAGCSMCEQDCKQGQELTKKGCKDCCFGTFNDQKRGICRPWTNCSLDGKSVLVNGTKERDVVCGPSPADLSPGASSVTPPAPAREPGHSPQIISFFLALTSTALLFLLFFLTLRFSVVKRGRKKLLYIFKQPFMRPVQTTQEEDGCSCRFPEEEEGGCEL
# Hu41BB N&E.1 = molecular target: T7, Hu41BB N&E.1 (human, UniProt Q07011 18-255); experiment: as above
# T7 construct: Human-to-dog mutant of the human 4-1BB extracellular domain, expressed on transduced 300-19 cells
# T7 chain: T6 chain with D21G, N22K, R24K, S29I
# Hu41BB N&E.5 = molecular target: T8, Hu41BB N&E.5 (human, UniProt Q07011 18-255); experiment: as above
# T8 construct: Human-to-dog mutant of the human 4-1BB extracellular domain, expressed on transduced 300-19 cells; also called 4-1BB Mutant N&E.5
# T8 chain: T6 chain with K13N, T39A, S40G, K43R, A44T, K98Q, C104R, R117Q, R137S, V139A
# Hu41BB N&E.6 = molecular target: T9, Hu41BB N&E.6 (human, UniProt Q07011 18-255); experiment: as above
# T9 construct: Human-to-dog mutant of the human 4-1BB extracellular domain, expressed on transduced 300-19 cells
# T9 chain: T6 chain with K13N, T39A, S40G, K43R, A44T, S144A, P145S, D147G, L148F, A152T
# [5] = molecular target: T5, Recombinant human 4-1BB/Fc Chimera (R&D …); experiment: ligand competition ELISA, 4-1BB_IgG1Fc to plate-bound 4-1BBL (competitor 4-1BBL)
# Hu41BB N&E.4 = molecular target: T10, Hu41BB N&E.4 (human, UniProt Q07011 18-255); experiment: FACS, 100 nM antibody, transduced 300-19 cell pools
# T10 construct: Human-to-dog mutant of the human 4-1BB extracellular domain, expressed on transduced 300-19 cells
# T10 chain: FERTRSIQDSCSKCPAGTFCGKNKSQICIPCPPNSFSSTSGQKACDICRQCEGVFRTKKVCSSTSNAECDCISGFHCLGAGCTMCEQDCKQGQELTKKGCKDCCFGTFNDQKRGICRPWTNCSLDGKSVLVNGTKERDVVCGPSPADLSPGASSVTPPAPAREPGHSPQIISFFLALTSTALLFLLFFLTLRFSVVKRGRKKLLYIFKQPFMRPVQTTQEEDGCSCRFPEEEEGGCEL
# [6] = molecular target: T11, human 4-1BB extracellular portion, amino acids 24-186 (Fc cleaved off with Factor Xa) (human, UniProt Q07011 24-186); experiment: SPR (Biacore 3000), antibody amine-coupled, 4-1BB 24-186 as analyte, 25 C
# T11 construct: Made from the R&D Systems 4-1BB/Fc chimera by Factor Xa cleavage; also called recombinant human 4-1BB; the 4-1BB
# [7] = molecular target: T5, Recombinant human 4-1BB/Fc Chimera (R&D …); experiment: ELISA on directly coated human 4-1BB/Fc
# human 4-1BB on cells [8] = molecular target: T4, human 4-1BB on cells; experiment: FACS on HEK293 cells expressing human 4-1BB
# [9] = molecular target: T12, human 4-1BB (recombinant antigen, construct not stated) (human, UniProt Q07011 24-186); experiment: SPR (Biacore 3000), Fab analyte on amine-coupled human 4-1BB
# T12 construct: It may be the 4-1BB/Fc chimera; also called CD137/HUMAN 4-1BB; unlabeled human 4-1BB
# T1 sequence (P25942 21-277 limits assumed): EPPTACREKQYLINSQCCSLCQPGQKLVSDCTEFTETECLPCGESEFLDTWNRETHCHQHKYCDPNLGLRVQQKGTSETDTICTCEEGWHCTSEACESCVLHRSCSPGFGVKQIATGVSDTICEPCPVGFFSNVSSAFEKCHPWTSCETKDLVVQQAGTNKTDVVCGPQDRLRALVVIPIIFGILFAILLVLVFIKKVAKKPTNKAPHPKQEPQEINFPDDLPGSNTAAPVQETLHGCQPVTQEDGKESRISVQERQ
binder,measurement,setting,value
B1,binding result,CD40 on 300.19 cells,no binding (tested: 1000 nM)
same,binding result,OX-40 on 300.19 cells,no binding (tested: 1000 nM)
same,binding result,Hu41BB N&E.3,binds
B2,fold selectivity for 4-1BB versus OX-40 and CD40,human 4-1BB on cells [1],≥ 100 fold
same,binding result,CD40 on 300.19 cells,no binding (tested: 1000 nM)
same,binding result,OX-40 on 300.19 cells,no binding (tested: 1000 nM)
same,EC50,[2],0.091 nM
same,EC50,[3],0.3 nM
same,EC50,human 4-1BB on cells [4],0.8 nM
same,binding result,Hu41BB N&E,binds
same,binding result,Hu41BB N&E.1,binds
same,binding result,Hu41BB N&E.5,binds
same,binding result,Hu41BB N&E.6,binds
same,% max inhibition,[5],100%
same,IC50,[5],0.172 nM
B3,binding result,CD40 on 300.19 cells,no binding (tested: 1000 nM)
same,binding result,OX-40 on 300.19 cells,no binding (tested: 1000 nM)
same,binding result,Hu41BB N&E.3,binds
same,binding result,Hu41BB N&E.4,binds
B4,binding result,Hu41BB N&E.3,binds
same,binding result,Hu41BB N&E.4,binds
B5,Kd,[6],28 nM
same,koff,[6],0.022 s⁻¹
same,kon,[6],800000 M⁻¹ s⁻¹
B6,EC50,[2],0.122 nM
same,Kd,[6],0.57 nM
same,koff,[6],0.00023 s⁻¹
same,kon,[6],450000 M⁻¹ s⁻¹
same,t1/2,[6],50 min
same,% max inhibition,[5],98%
same,IC50,[5],0.125 nM
B7,binding result,Hu41BB N&E.3,binds
same,binding result,Hu41BB N&E.4,binds
B8,EC50,[7],0.6 nM
same,EC50,human 4-1BB on cells [8],105 nM
same,Kd,[9],118 nM
